From the DeepSol protein solubility set

test: soluble on expression in E. coli; label from the status in PepcDB or PDB records

Sequence | soluble on expression in E. coli
YATQSKNTNILLEYVSANPTGDLHIGHARNAAVGDSLANILIAAGYNVTREYYINDAGNQITNLARSIEARYFEALGDTSYEMPADGYNGKDIIEIGKDLAVKHPEIKDYSDEERLKTFRQLGVDYEMEKLKKDLSDFNVHFDNWFSETSLYENGAIKNTLSKMKELGYTYEADGATWLRTSDFKDDKDRVLIKKDGNYTYFTPDTAYHYNKINRGNDILIDLMGADHHGYINRLKASLETFGVDSDRLEIQIMQMVRLMQNGEEVKMSKRTGNAITLREIMDEVGIDAARYFLTMRSPDSHFDFDLELAKEQSQDNPIYYAQYAHARICSILKQAKE | not soluble
YCTLDDLILSFGQDEIYRLIATDQEAEKALDDAQAEIDMYLSDRYALPVKSVPKSLNRIACDIAHYYLYNSVDEDSTVYLRYKHRIKQLSDVAAGKLSLGLYDKSDDATTDNQVVFIKSSKKVFAR | not soluble
YIYRLGKEKEKNDRLIQSITINQMEARQNEEIINSTHSLRVFKHDIMNHMSILYKLVENGKNSDALKYIYQINNSIERTSYTISTGIIPIDCIMTAKLSKALDNNISIKHQIHFPANYNISDMDLCSLISNLLDNAIEANCKLDMTKRRLQIEIKPYNNMLLLFISNSSNGIYLYGGNGNLLTTKTSNKNEHGIGIKRINEIVKKYNGIIEFDPGTEIFSVSILFPLDN | not soluble
YNGQSETSQQPETPVFNTLPMMGKASPVSLGVPSEATANNGQQQQVQEQRRRINAMLQDYELQRRLHSEQLQFEQAQTQQAAVQVPGIQTLGTQSQ | soluble
YRDINEIDINMNDPLFTKQWYLINTGQADGTPGLDLNVAEAWELGYTGKGVTIGIMDDGIDYLHPDLASNYNAEASYDFSSNDPYPYPRYTDDWFNSHGTRCAGEVSAAANNNICGVGVAYNSKVAGIRMLDQPFMTDIIEASSISHMPQLIDIYSASWGPTDNGKTVDGPRELTLQAMADGVNKGRGGKGSIYVWASGDGGSYDDCNCDGYASSMWTISINSAINDGRTALYDESCSSTLASTFSNGRKRNPEAGVATTDLYGNCTLRHSGTSAAAPEAAGVFALALEANLGLTWRDMQHLTVLTSKRNQLHDEVHQWRRNGVGLEFNHLFGYGVLDAGAMVKMAKDWKTVPERFHCVGGSVQDPEKIPSTGKLVLTLTTDACEGKENFVRYLEHVQAVITVNATRRGDLNINMTSPMGTKSILLSRRPRDDDSKVGFDKWPFMTTHTWGEDARGTWTLELGFVGSAPQKGVLKEWTLMLHGTQSAPYIDQVVRDYQSKLAMSKKEELEEELDEAVERSLKSILNKN | soluble
YRNSIEGLIEKGIRDEEFIPYYQPIVDSRTQEVVGYEVLLRWQKGHQLVPPSLFISAAEDSGLVVKITNQLIQQVHRDLAQIPAPRWVSINVVADHLEQHHLTHLLEELHWPYSERLKFELTERVPIKAMTQAQEEVFYLLKKGYQFKIDDFGTGYGGFAYLQNLQISSIKIDKMFVDTINTHDVKISVLDSIIASAQGGNIEVIAEGVEHQYQVDYLAERNVFWIQGYFYAKP | not soluble
